Measured values taken from patent publication US20190071668, “COMPOSITIONS AND METHODS FOR IDENTIFICATION, ASSESSMENT, PREVENTION, AND TREATMENT OF CANCER USING SLNCR ISOFORMS” (Dana-Farber Cancer Institute, Inc., published 2019).

B1: (UUCU)5 (ssRNA)
RNA: UUCUUUCUUUCUUUCUUUCU
B2: (UC)10 (ssRNA)
RNA: UCUCUCUCUCUCUCUCUCUC
B3: (CCCU)5 (ssRNA)
RNA: CCCUCCCUCCCUCCCUCCCU

molecular target: Androgen receptor (AR) (UniProt P10275 P10275:1-920); experiment: EMSA
Sequence (P10275 whole entry, one chain of several): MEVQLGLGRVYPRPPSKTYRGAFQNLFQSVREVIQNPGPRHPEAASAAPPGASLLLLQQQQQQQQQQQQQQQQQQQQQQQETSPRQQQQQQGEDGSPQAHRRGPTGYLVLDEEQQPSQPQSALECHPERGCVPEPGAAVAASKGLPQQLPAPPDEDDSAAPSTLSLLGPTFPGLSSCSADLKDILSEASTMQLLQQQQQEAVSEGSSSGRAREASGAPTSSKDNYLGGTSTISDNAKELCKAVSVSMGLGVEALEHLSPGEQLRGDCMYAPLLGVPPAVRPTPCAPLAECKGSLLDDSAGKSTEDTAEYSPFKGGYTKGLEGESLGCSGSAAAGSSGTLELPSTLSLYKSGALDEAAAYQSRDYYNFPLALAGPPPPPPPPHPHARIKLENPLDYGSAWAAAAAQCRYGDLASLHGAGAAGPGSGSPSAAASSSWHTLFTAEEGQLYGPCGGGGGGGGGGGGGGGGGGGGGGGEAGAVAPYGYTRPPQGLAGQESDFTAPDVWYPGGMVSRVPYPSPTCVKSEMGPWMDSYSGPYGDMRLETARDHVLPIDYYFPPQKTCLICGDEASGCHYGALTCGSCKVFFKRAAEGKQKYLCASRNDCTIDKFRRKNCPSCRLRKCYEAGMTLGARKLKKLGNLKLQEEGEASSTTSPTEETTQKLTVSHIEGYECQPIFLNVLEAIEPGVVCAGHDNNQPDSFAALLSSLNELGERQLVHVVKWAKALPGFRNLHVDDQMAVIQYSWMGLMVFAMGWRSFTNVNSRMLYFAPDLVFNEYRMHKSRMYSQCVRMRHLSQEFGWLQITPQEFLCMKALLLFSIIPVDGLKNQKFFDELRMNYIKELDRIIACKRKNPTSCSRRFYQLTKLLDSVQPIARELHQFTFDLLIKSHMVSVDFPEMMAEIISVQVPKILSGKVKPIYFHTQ

Binding result, no binding:
B1
B2
B3
